Assay results as given in patent US20110027909A1, “Chimera Compositions and Methods of Use” (priority 2009, published 2011).

Tests used:
[1] = tested on: untransfected HEK 293 cells; experiment: Negative control calcium release, HEK 293 cells not transfected; type: cell-based, human; conditions: FIG. 7
Description: (§1) As a negative control, the effect of CRF on HEK 293 cells that had not been transfected or which expressed a recombinant dopamine receptor was measured.

[2] = tested on: IGF-BP2_CRFR chimera; experiment: FLIPR intracellular calcium release, HEK-293 cells expressing IGF-BP2_CRFR2 chimera; type: cell-based, human; conditions: CRF 1 pM-10 μM, FIG. 13
Description: The mammalian cells expressing the various isolated chimera constructs were tested for the ability of the chimera proteins to activate intracellular calcium release. The HEK-293 cells expressing the constructs of Example 9 were grown in 10% FBS in DMEM cell media with hygromycin (0.4%) selection reagent. The cells were plated out in 96-well plates (40 000 cells/well) in FBS/DMEM media. On the following day, cells were serum starved (1% FBS in DMEM; 100 μl/well) for 2 hours prior to testing.
The cells were loaded with diluted FLIPR™ dye (100 μl) for one hour prior to testing with CRF. The selected hygromycin resistant cells were plated in 96-well clear bottom black microplates at a density of approximately 40,000 cells/well, in DMEM/10% FBS media. […]
(§2) A FlexStation (Molecular Devices) fluorometric imaging plate reader was used to measure changes in intracellular Ca^2+. […] The machine was used in Flex mode, and the fluorescent intensity was measured from the bottom with the excitation at 485 nm and emission at 525 nm for 120 seconds at 21° C.
The results of the FLIPR experiments detecting the levels of intracellular calcium induced by activation of the chimeras with CRF are shown in FIG. 13. […] Results are expressed as the mean (±SEM) relative fluorescence units (RFU), calculated as agonist-induced maximum Ca^2+ peak/cell number×1000.

[3] = biological target: T1, CRF-BP(FL)_CRFR2 chimera (Homo sapiens, UniProt P24387+Q13324); experiment: FLIPR intracellular calcium release, agonist mode, HEK 293 cells expressing full-length CRF-BP_CRFR2 chimera; type: cell-based
T1 construct: DNA encoding the CRFR2 protein was amplified using the ssHA CRFR2_Zeo plasmid DNA template; FLAG (N); expressed in transfected cells
T1 sequence (P24387+Q13324 with tags, fused parts or gaps): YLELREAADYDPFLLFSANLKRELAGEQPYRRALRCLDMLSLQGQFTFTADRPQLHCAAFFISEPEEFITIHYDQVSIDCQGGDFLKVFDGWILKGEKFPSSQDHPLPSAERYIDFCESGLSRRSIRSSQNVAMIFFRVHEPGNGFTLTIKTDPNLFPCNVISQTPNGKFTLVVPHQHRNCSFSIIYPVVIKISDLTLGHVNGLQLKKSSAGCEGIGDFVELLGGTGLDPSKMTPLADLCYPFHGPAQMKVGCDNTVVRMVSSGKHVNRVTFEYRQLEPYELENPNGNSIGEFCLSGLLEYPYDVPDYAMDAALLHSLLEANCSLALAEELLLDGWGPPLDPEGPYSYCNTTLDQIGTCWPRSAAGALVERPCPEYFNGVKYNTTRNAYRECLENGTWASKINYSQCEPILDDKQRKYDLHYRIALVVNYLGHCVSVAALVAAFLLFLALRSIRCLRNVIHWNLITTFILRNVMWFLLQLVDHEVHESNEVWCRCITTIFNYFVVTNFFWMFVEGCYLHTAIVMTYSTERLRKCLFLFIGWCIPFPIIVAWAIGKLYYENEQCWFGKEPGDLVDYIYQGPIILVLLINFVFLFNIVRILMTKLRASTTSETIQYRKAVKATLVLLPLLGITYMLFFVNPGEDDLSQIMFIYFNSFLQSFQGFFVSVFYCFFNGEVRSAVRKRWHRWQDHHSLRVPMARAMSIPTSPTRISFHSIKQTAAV
Description: (§3) The mammalian cells expressing the isolated chimera constructs were tested for the ability of the chimera proteins to activate intracellular calcium release via signaling through Gq. HEK 293 cells of Example 2 expressing the constructs of Example 1 were grown in 10% FBS in DMEM cell media with hygromycin (0.4%) selection reagent. Cells were plated out in 96-well plates (40 000 cells/well) in FBS/DMEM media. On the following day, cells were serum starved (1% FBS in DMEM; 100 μl/well) for 2 hours prior to testing.
(§4) Cells were loaded with diluted FLIPR™ dye (100 μl) for one hour prior to testing with CRF. The selected hygromycin resistant cells were plated in 96-well clear bottom black microplates at a density of approximately 40,000 cells/well, in DMEM/10% FBS media. […]
as §2
The results of the FLIPR experiments detecting the levels of intracellular calcium induced by activation of the chimera with CRF are shown in FIGS. 3-5. […] Results are expressed as the mean (±SEM) relative fluorescent units (RFU), calculated as agonist-induced maximum Ca^2+ peak/cell number×1000.

[4] = tested on: recombinant dopamine receptor; experiment: Negative control calcium release, HEK 293 cells expressing a recombinant dopamine receptor; type: cell-based; conditions: HEK 293 cells expressing recombinant dopamine receptor; FIG. 7
Description: as §1

[5] = biological target: T2, CRF-BP_NK1R chimera (Homo sapiens, UniProt P24387+P25103); experiment: FLIPR intracellular calcium release, HEK-293 cells expressing CRF-BP_NK1R chimera; type: cell-based; conditions: 1 pM-10 μM, FIGS. 9, 10
T2 construct: the construct used to create a CRF-BP(FL)_NK1R chimera; FLAG (N); expressed in transfected cells
T2 sequence (P24387+P25103 fused, change not shown): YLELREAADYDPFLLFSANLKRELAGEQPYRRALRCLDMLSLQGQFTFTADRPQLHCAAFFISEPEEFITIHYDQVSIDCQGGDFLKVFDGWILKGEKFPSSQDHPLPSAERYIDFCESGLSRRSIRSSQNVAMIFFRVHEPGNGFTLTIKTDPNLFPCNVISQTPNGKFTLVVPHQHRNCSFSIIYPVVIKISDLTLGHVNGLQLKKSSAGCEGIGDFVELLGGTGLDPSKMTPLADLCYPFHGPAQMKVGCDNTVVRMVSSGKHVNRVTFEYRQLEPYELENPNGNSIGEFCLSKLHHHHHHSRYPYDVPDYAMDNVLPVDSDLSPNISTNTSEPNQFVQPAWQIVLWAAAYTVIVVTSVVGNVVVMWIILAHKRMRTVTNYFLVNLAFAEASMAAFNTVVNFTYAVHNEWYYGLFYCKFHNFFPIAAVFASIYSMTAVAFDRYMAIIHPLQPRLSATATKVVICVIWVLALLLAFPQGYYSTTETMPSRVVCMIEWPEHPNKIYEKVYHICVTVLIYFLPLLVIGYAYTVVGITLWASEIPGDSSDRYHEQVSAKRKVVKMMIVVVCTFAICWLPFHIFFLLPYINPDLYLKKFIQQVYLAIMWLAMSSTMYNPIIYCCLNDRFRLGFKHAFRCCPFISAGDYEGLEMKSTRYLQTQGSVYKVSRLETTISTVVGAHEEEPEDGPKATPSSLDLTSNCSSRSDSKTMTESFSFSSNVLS
Description: The mammalian cells expressing the various isolated chimera constructs were tested for the ability of the chimera proteins to activate intracellular calcium release. The HEK-293 cells of Example 5 expressing the constructs of Example 4 were grown in 10% FBS in DMEM cell media with hygromycin (0.4%) as a selection reagent. Cells were plated out in 96-well plates (40 000 cells/well) in FBS/DMEM media. On the following day, cells were serum starved (1% FBS in DMEM; 100 μl/well) for 2 hours prior to testing.

[6] = biological target: T3, CRF-BP(10 Kd)_CRFR2 chimera (Homo sapiens, UniProt P24387+Q13324); experiment: FLIPR intracellular calcium release, HEK 293 cells expressing CRF-BP(10 Kd)_CRFR2 chimera; type: cell-based
T3 construct: The CRF-BP (10 Kd) fragment is comprised of 88 amino acid residues (A235 to L322); DNA encoding the CRFR2 protein was amplified using the ssHA CRFR2_Zeo plasmid DNA template; FLAG (N); expressed in transfected cells
T3 sequence (P24387+Q13324 with tags, fused parts or gaps): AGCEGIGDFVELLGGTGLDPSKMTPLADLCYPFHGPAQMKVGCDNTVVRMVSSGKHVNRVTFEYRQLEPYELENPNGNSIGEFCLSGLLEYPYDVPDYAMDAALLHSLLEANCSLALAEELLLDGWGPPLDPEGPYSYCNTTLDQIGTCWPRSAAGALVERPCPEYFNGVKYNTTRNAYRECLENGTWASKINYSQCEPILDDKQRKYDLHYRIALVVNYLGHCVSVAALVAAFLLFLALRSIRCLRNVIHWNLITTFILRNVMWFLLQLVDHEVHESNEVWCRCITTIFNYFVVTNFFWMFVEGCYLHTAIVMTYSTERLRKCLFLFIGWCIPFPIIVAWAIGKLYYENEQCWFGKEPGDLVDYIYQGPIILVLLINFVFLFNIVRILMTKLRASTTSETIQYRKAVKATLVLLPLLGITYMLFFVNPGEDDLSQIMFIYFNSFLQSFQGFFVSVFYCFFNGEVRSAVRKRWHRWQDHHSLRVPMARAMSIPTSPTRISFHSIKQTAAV
Description: as §3, §4, §2
Results are expressed as the mean (±SEM) relative fluorescent units (RFUs), calculated as agonist-induced maximum Ca^2+ peak/cell number×1000.

[7] = CRF, intracellular calcium release

Substance: Corticotropin Releasing Factor [CRF]
- intracellular calcium signaling [1]: did not display any significant signaling
- intracellular calcium release (RFU) [2]: different levels of CRF-induced (1 pM-10 μM) intracellular calcium release in the HEK-293 cells corresponding to the concentration of CRF
- intracellular calcium release (agonist-induced maximum Ca2+ peak, RFU) ([3]; 1 pM-10 μM, HEK 293 cells, FIGS. 3-5): increased as the concentration of CRF was increased
- signaling through the chimera compared with CRFR2 alone [3, 7]: more effectively than CRF at CRFR2 alone
- intracellular calcium signaling [4]: did not display any significant signaling
- intracellular calcium release (RFU) [5]: different levels of CRF-induced (1 pM-10 μM) intracellular calcium release in the HEK-293 cells corresponding to the concentration of CRF
- intracellular calcium release (RFU) ([6]; CRF 1 pM-10 μM, compared with full-length chimera, FIG. 6): even more robust signaling than the full-length CRF-BP_CRFR2 chimera
- signaling through the chimera compared with CRFR2 alone [6, 7]: more effectively than CRF at CRFR2 alone
